The numbers were not newly measured in article PMC3791837, which cites them from elsewhere.

This data set addresses FcγRIIA (Homo sapiens) (UniProt P12318). As to the kind of experiment: confocal analysis of transfected cells.
Sequence of UniProt P12318 (P12318 34-217): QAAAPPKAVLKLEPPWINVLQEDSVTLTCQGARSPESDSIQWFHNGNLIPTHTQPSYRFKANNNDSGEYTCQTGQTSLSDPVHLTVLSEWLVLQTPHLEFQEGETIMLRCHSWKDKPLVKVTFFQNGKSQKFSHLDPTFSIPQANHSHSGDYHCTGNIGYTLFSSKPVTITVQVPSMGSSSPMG

As for CRP (from UniProt P02741), the Kd was 3.7 µM.
